Series [1] has as its system Saccharomyces cerevisiae. The series is described as follows: protein stability index of tFT-peptide fusion in wild type (PSI (0-1 scale)); higher = more stable (slower turnover). The note with it: genetic background: wild type.
The subject of series [2] is Saccharomyces cerevisiae. In words: protein stability index of tFT-peptide fusion in deletion strain of DOA10 (PSI (0-1 scale)); higher = more stable (slower turnover). On the procedure:
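MPS profiling in S. cerevisiae of two library types built from selected 12-aa C-degron peptides (IN1, IN2, LN1, LN3, VN2, R1-R5, W1-W3, Atg1 and Rpa12 C-termini): saturation mutagenesis libraries and C-terminal +1 capping libraries (13 aa). Each peptide is fused to the C-terminus of a sfGFP-mCherry timer, after a GGGS linker. Cells are FACS-sorted into 8 mCherry/sfGFP bins and sequenced. PSI runs from 0 (unstable) to 1 (stable), measured once in wild type and in the das1Δ or doa10Δ background.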

In series [3] the test system is Saccharomyces cerevisiae. The series is described as follows: protein stability index of tFT-peptide fusion (C-terminal peptide) (PSI (0-1 scale)); higher = more stable (slower turnover). On the procedure: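 MPS profiling in S. cerevisiae of the tFT-X12 degron library: putative degron peptides plus stable controls, 12 aa, fused to the C-terminus of a sfGFP-mCherry timer. Cells are FACS-sorted into 8 mCherry/sfGFP bins and deep-sequenced. PSI runs from 0 (unstable) to 1 (stable). Backgrounds are wild type, das1Δ and doa10Δ at 30 °C, and wild type, das1Δ, cdc34-1 and cdc53-1 at 37 °C; 2-3 technical replicates each.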

Series [4] concerns Saccharomyces cerevisiae. The series is described as follows: protein stability index of tFT-peptide fusion in deletion strain of DAS1 (PSI (0-1 scale)); higher = more stable (slower turnover).
The subject of series [5] is Saccharomyces cerevisiae. In words: protein stability index of tFT-peptide fusion (C-terminal peptide) (PSI (0-1 scale)); higher = more stable (slower turnover). The note with it: genetic background: wild type; temperature: 30 C.

Values joined by “and” are separate entries in the source; they are usually repeats but may differ in a detail not shown here. Equal values may be shown once. ± gives the standard deviation of the averaged measurements.

Protein stability index data for 67 sequences are collected here from the supplement of paper PMC10724198.
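For protein stability index of tFT-peptide fusion (C-terminal peptide) in this document: PSI is a weighted mean of sequencing reads over stability bins, variants kept only with over 10 reads, mCherry proximal and sfGFP distal, peptide attached via GGGS linker.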
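For protein stability index of tFT-peptide fusion in deletion strain of DAS1 in this document: PSI is a weighted mean of each variant's read distribution over the sorted stability bins, computed only for variants having over 10 reads in total.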
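For protein stability index of tFT-peptide fusion in deletion strain of DOA10 in this document: PSI per variant is the weighted mean of its sequencing read distribution over the sorted stability bins, counting only variants with over 10 reads summed across bins.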
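For protein stability index of tFT-peptide fusion in wild type in this document: PSI derived as read-weighted mean over the 8 sorting bins, only variants exceeding 10 total reads kept, mCherry placed adjacent to the peptide and sfGFP distal.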

Regarding AIFLPMCPLLLR, the protein stability index in the series on Saccharomyces cerevisiae [1] turned out to be 0.278; in the series on Saccharomyces cerevisiae [2], 0.631.

Take AIHLPMCPLLLR: the protein stability index in the series with Saccharomyces cerevisiae [1] amounted to 0.278; in the series with Saccharomyces cerevisiae [2] it was 0.65.

AITGPMCPLLLR: the protein stability index with Saccharomyces cerevisiae [1] worked out at 0.497; in the series with Saccharomyces cerevisiae [2], 0.666.

Take AITKPMCPLLLR: the protein stability index with Saccharomyces cerevisiae [1] is 0.458; with Saccharomyces cerevisiae [2], 0.651.

Consider AITLGMCPLLLR, for which the results for the protein stability index in the series with Saccharomyces cerevisiae [1] and with Saccharomyces cerevisiae [2] were 0.373 and 0.661, respectively.

Regarding AITLNMCPLLLR, the protein stability index in the series on Saccharomyces cerevisiae [1] amounted to 0.261; in the series with Saccharomyces cerevisiae [2] it was 0.662.

Consider AITLPMCPLFLR, for which the figures for the protein stability index in the series on Saccharomyces cerevisiae [1] and with Saccharomyces cerevisiae [2] were 0.184 and 0.67, respectively.

For AITLPMCPLLER, the protein stability index in the series on Saccharomyces cerevisiae [1] is 0.648; in the series on Saccharomyces cerevisiae [2], 0.741.

In the case of AITLPMCPLLLH, the protein stability index with Saccharomyces cerevisiae [1] amounted to 0.502; in the series with Saccharomyces cerevisiae [2], 0.621.

In the case of AITLPMCPLLLN, the protein stability index is 0.135 in the series with Saccharomyces cerevisiae [1] and 0.189 in the series with Saccharomyces cerevisiae [2].

In the case of AITLPMCPLLLRN, the figures for the protein stability index with Saccharomyces cerevisiae [1] and in the series with Saccharomyces cerevisiae [2] were 0.281 and 0.659, respectively.

Turning to AITLPMCPYLLR, the protein stability index in the series on Saccharomyces cerevisiae [1] came out at 0.545; with Saccharomyces cerevisiae [2] it was 0.675.

As to AITLPMCVLLLR, the protein stability index worked out at 0.0936 in the series on Saccharomyces cerevisiae [1] and 0.608 in the series on Saccharomyces cerevisiae [2].

Consider AITLPMCWLLLR, for which the protein stability index in the series on Saccharomyces cerevisiae [1] stood at 0.0817; in the series with Saccharomyces cerevisiae [2] it was 0.736.

As to AITLPQCPLLLR, the protein stability index with Saccharomyces cerevisiae [1] stood at 0.293; in the series with Saccharomyces cerevisiae [2] it was 0.661.

Consider AITLPTCPLLLR, for which the protein stability index was 0.289 with Saccharomyces cerevisiae [1] and 0.681 with Saccharomyces cerevisiae [2].

On to AITLPYCPLLLR, for which the protein stability index in the series with Saccharomyces cerevisiae [1] was found to be 0.18; with Saccharomyces cerevisiae [2], 0.666.

In the case of AITLQMCPLLLR, the protein stability index in the series with Saccharomyces cerevisiae [1] is 0.3; in the series with Saccharomyces cerevisiae [2], 0.619.

Turning to AITLWMCPLLLR, the protein stability index with Saccharomyces cerevisiae [1] turned out to be 0.267; in the series on Saccharomyces cerevisiae [2] it was 0.611.

For the sequence AITSPMCPLLLR, the protein stability index in the series with Saccharomyces cerevisiae [1] was 0.491; in the series on Saccharomyces cerevisiae [2], 0.672.

As to AIVLPMCPLLLR, the protein stability index in the series on Saccharomyces cerevisiae [1] was determined as 0.229; in the series with Saccharomyces cerevisiae [2], 0.623.

ALYMCSVGCWFR: the protein stability index is 0.351 with Saccharomyces cerevisiae [1] and 0.638 in the series on Saccharomyces cerevisiae [2].

ANTLPMCPLLLR: the protein stability index with Saccharomyces cerevisiae [1] was found to be 0.442; with Saccharomyces cerevisiae [2] it was 0.649.

With CEVSLPILLFFR, the protein stability index was found to be 0.066 with Saccharomyces cerevisiae [1] and 0.635 in the series on Saccharomyces cerevisiae [2].

For CLPSLPILLFFR, the protein stability index in the series with Saccharomyces cerevisiae [1] amounted to 0.0469; in the series with Saccharomyces cerevisiae [2], 0.632.

As for CLTSLPILLFFR, the protein stability index in the series on Saccharomyces cerevisiae [1] stood at 0.0745; with Saccharomyces cerevisiae [2] it was 0.636.

CLVFLPILLFFR: the protein stability index with Saccharomyces cerevisiae [1] amounted to 0.0802; in the series on Saccharomyces cerevisiae [2], 0.416.

Take CLVKLPILLFFR: the values for the protein stability index with Saccharomyces cerevisiae [1] and with Saccharomyces cerevisiae [2] were 0.06 and 0.6, respectively.

As for CLVSFPILLFFR, the protein stability index in the series with Saccharomyces cerevisiae [1] was determined as 0.0594; in the series on Saccharomyces cerevisiae [2], 0.583.

On to CLVSLMILLFFR, for which the protein stability index in the series on Saccharomyces cerevisiae [1] is 0.256; with Saccharomyces cerevisiae [2], 0.398.

Turning to CLVSLPELLFFR, the protein stability index with Saccharomyces cerevisiae [1] worked out at 0.176; with Saccharomyces cerevisiae [2] it was 0.692.

In the case of CLVSLPIHLFFR, the protein stability index with Saccharomyces cerevisiae [1] worked out at 0.0666; with Saccharomyces cerevisiae [2] it was 0.669.

For CLVSLPILFFFR, the protein stability index was determined as 0.499 in the series with Saccharomyces cerevisiae [1] and 0.59 in the series with Saccharomyces cerevisiae [2].

On to CLVSLPILHFFR, for which the protein stability index in the series with Saccharomyces cerevisiae [1] came out at 0.628; in the series on Saccharomyces cerevisiae [2] it was 0.667.

In the case of CLVSLPILLFCR, the protein stability index came out at 0.0631 with Saccharomyces cerevisiae [1] and 0.25 in the series with Saccharomyces cerevisiae [2].

With CLVSLPILLFFM, the protein stability index in the series with Saccharomyces cerevisiae [1] was found to be 0.299; in the series with Saccharomyces cerevisiae [2], 0.479.

With CLVSLPILLHFR, the protein stability index in the series on Saccharomyces cerevisiae [1] amounted to 0.286; with Saccharomyces cerevisiae [2], 0.655.

As for CLVSLPILLKFR, the protein stability index in the series with Saccharomyces cerevisiae [1] was found to be 0.178; in the series with Saccharomyces cerevisiae [2], 0.652.

CLVSLPILLSFR: the protein stability index in the series with Saccharomyces cerevisiae [1] came to 0.187; in the series with Saccharomyces cerevisiae [2] it was 0.631.

Regarding KKHKKGQKQKIN, the protein stability index amounted to 0.535 ± 0.036 in the series on Saccharomyces cerevisiae [3] (genetic background: cdc34-1, temperature: 37 C); 0.694 ± 0.011 in the series on Saccharomyces cerevisiae [3] (genetic background: cdc53-1, temperature: 37 C); 0.622 ± 0.04 in the series with Saccharomyces cerevisiae [3] (genetic background: das1 deletion, temperature: 30 C); 0.725 ± 0.021 with Saccharomyces cerevisiae [3] (genetic background: das1 deletion, temperature: 37 C); 0.0638 ± 0.032 with Saccharomyces cerevisiae [3] (genetic background: doa10 deletion, temperature: 30 C); 0.0729 ± 0.029 in the series on Saccharomyces cerevisiae [3] (genetic background: wild type, temperature: 30 C). For the same sequence, the protein stability index was 0.149 ± 0.11 with Saccharomyces cerevisiae [3] (genetic background: wild type, temperature: 37 C); 0.113 and 0.11 with Saccharomyces cerevisiae [1]; 0.66 and 0.611 with Saccharomyces cerevisiae [4]; 0.175 ± 0.039 in the series with Saccharomyces cerevisiae [5].

Turning to VRGAKGGWRLVG, the values for the protein stability index in the series on Saccharomyces cerevisiae [1] and in the series on Saccharomyces cerevisiae [4] were 0.28 and 0.67, respectively.

As to VRGANGGWRLVG, the protein stability index came to 0.212 with Saccharomyces cerevisiae [1] and 0.677 with Saccharomyces cerevisiae [4].

Turning to VRGAQGGWRLVG, the results for the protein stability index in the series with Saccharomyces cerevisiae [1] and in the series with Saccharomyces cerevisiae [4] were 0.191 and 0.701, respectively.

Consider VRGAVAGWRLVG, for which the protein stability index in the series with Saccharomyces cerevisiae [1] came to 0.156; in the series with Saccharomyces cerevisiae [4], 0.655.

With VRGAVGGMRLVG, the protein stability index in the series with Saccharomyces cerevisiae [1] is 0.592; in the series on Saccharomyces cerevisiae [4], 0.677.

Regarding VRGAVGGWRCVG, the protein stability index worked out at 0.222 in the series on Saccharomyces cerevisiae [1] and 0.658 in the series on Saccharomyces cerevisiae [4].

With VRGAVGGWRFVG, the protein stability index came out at 0.142 in the series on Saccharomyces cerevisiae [1] and 0.674 in the series on Saccharomyces cerevisiae [4].

For the sequence VRGAVGGWRHVG, the protein stability index with Saccharomyces cerevisiae [1] was 0.137; in the series on Saccharomyces cerevisiae [4], 0.691.

VRGAVGGWRLFG: the protein stability index in the series with Saccharomyces cerevisiae [1] is 0.333; with Saccharomyces cerevisiae [4], 0.694.

For VRGAVGGWRLTG, the protein stability index in the series with Saccharomyces cerevisiae [1] came to 0.269; in the series on Saccharomyces cerevisiae [4], 0.659.

Regarding VRGAVGGWRLVGM, the protein stability index with Saccharomyces cerevisiae [1] amounted to 0.621; in the series on Saccharomyces cerevisiae [4], 0.685.

On to VRGAVGGWRLVGQ, for which the protein stability index in the series on Saccharomyces cerevisiae [1] was determined as 0.701; with Saccharomyces cerevisiae [4], 0.667.

Consider VRGAVGGWRLVGS, for which the protein stability index in the series with Saccharomyces cerevisiae [1] is 0.174; with Saccharomyces cerevisiae [4], 0.67.

Consider VRGAVGGWRLVW, for which the protein stability index with Saccharomyces cerevisiae [1] came out at 0.714; in the series on Saccharomyces cerevisiae [4], 0.671.

For the sequence VRGAVGGWRNVG, the values for the protein stability index in the series on Saccharomyces cerevisiae [1] and with Saccharomyces cerevisiae [4] were 0.364 and 0.676, respectively.

Take VRGAVGGYRLVG: the protein stability index is 0.658 with Saccharomyces cerevisiae [1] and 0.681 in the series with Saccharomyces cerevisiae [4].

Regarding VRGAVGIWRLVG, the protein stability index in the series on Saccharomyces cerevisiae [1] was 0.156; with Saccharomyces cerevisiae [4] it was 0.681.

As for VRGAVMGWRLVG, the values for the protein stability index in the series with Saccharomyces cerevisiae [1] and in the series with Saccharomyces cerevisiae [4] were 0.154 and 0.71, respectively.

In the case of VRGAVPGWRLVG, the protein stability index in the series with Saccharomyces cerevisiae [1] came to 0.149; with Saccharomyces cerevisiae [4] it was 0.678.

VRGAVTGWRLVG: the protein stability index was 0.157 in the series with Saccharomyces cerevisiae [1] and 0.684 in the series on Saccharomyces cerevisiae [4].

VRGHVGGWRLVG: the protein stability index in the series on Saccharomyces cerevisiae [1] is 0.131; in the series on Saccharomyces cerevisiae [4], 0.672.

As for VRWAVGGWRLVG, the protein stability index in the series on Saccharomyces cerevisiae [1] stood at 0.0824; with Saccharomyces cerevisiae [4] it was 0.685.

For VSLAASFWRVVG, the values for the protein stability index in the series on Saccharomyces cerevisiae [1] and in the series with Saccharomyces cerevisiae [4] were 0.102 and 0.676, respectively.

For the sequence VYGAVGGWRLVG, the protein stability index in the series with Saccharomyces cerevisiae [1] is 0.137; with Saccharomyces cerevisiae [4] it was 0.677.

For the sequence WTSCGYKFRTNN, the protein stability index in the series on Saccharomyces cerevisiae [1] stood at 0.173; with Saccharomyces cerevisiae [4] it was 0.699.

Regarding YKILRQKMNHQN, the protein stability index in the series on Saccharomyces cerevisiae [1] was 0.196; in the series on Saccharomyces cerevisiae [4], 0.668.

Consider YVVYLSCVACIN, for which the protein stability index stood at 0.0134 in the series with Saccharomyces cerevisiae [1] and 0.0254 with Saccharomyces cerevisiae [4].
